Residue numbers refer to the chain shown, from its start. Read-outs that look alike come from different tables or passages of the source. Each block holds one binder with its values, some of them ahead of it.
How the values were obtained:
[1] = biological target: T1, Human ROR1 (receptor tyrosine kinase-like orphan receptor 1) (human, UniProt Q01973 30-937); assay: competition with Myc-R12 scFv on ROR1/K562 cells; predicted plateau relative to R12 scFv = 100%
T1 construct: also called hROR1; K562/ROR1
T1 sequence (Q01973 30-937): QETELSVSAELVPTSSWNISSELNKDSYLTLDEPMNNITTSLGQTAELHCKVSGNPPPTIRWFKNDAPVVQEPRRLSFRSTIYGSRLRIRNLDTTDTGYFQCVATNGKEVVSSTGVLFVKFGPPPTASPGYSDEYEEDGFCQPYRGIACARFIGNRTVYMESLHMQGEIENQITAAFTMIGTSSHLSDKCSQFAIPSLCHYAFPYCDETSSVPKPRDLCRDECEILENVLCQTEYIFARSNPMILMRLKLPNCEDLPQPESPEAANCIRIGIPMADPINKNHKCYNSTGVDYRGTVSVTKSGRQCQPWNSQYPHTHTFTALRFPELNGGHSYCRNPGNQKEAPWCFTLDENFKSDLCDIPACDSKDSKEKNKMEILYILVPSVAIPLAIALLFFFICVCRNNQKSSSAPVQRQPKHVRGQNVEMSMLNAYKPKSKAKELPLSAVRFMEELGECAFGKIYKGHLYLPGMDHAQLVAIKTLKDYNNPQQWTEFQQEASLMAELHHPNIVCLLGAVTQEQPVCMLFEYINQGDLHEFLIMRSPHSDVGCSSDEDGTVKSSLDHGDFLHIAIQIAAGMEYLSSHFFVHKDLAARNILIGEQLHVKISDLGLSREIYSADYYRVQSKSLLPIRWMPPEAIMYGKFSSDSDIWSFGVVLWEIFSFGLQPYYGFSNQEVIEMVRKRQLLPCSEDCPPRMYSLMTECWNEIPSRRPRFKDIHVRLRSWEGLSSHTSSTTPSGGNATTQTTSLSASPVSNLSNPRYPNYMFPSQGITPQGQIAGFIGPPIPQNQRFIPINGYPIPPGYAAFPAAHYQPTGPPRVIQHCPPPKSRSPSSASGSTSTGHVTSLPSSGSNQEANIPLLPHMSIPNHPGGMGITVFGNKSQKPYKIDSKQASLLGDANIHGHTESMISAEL
Protocol: (§1) Assays also were performed to assess competition of the clones with the reference antibody (R12 scFv), for binding to ROR1-expressing cells. VH clones were titrated against 2 nM Myc-R12 on ROR1/K562 cells and competition assessed with an anti-Myc-Alexa647 secondary antibody, and the half maximal inhibitory concentration (IC₅₀) determined for respective clones.
(§2) Additionally, percent (%) maximum (max) binding to ROR1-expressing cells and % max competition with the reference antibody (R12 scFv) were calculated. Percent max binding and competition values were calculated based on predicted plateaus (measured by Prism® using four parameter non-linear regression), relative to values for R12 scFv binding and inhibition, respectively, assigned as 100% in each study.

[2] = biological target: T1, Human ROR1 (receptor tyrosine …); assay: flow cytometry on ROR1-expressing K562 and CHOK1 cells (n = 1)
[3] = biological target: T1, Human ROR1 (receptor tyrosine …); assay: flow cytometry competition, competitor 2 nM Myc-R12 scFv on ROR1/K562 cells, mean (n not given)
Protocol: as §1

[4] = biological target: T1, Human ROR1 (receptor tyrosine …); assay: flow cytometry on ROR1-expressing cells; predicted plateau relative to R12 scFv = 100%
Protocol: as §2

[5] = biological target: T1, Human ROR1 (receptor tyrosine …); assay: flow cytometry competition, competitor 2 nM Myc-R12 scFv on ROR1/K562 cells, mean (n = 2)
Protocol: as §1

[6] = biological target: T1, Human ROR1 (receptor tyrosine …); assay: flow cytometry on ROR1-expressing K562 and CHOK1 cells, mean (n = 2)
[7] = biological target: T1, Human ROR1 (receptor tyrosine …); assay: flow cytometry competition, competitor 2 nM Myc-R12 scFv on ROR1/K562 cells, mean (n = 3)
Protocol: as §1

[8] = biological target: T1, Human ROR1 (receptor tyrosine …); assay: flow cytometry on ROR1-expressing K562 and CHOK1 cells, mean (n = 20)
[9] = biological target: T1, Human ROR1 (receptor tyrosine …); assay: as above; remark: listed apart in the source
[10] = biological target: T1, Human ROR1 (receptor tyrosine …); assay: flow cytometry self-competition, competitor 2 nM Myc-R12 scFv on ROR1/K562 cells, mean (n = 17)
Protocol: as §1

[11] = biological target: T1, Human ROR1 (receptor tyrosine …); assay: flow cytometry self-competition, competitor R12 scFv on ROR1-expressing cells, mean (n = 17)
Protocol: as §1
(§3) Assays also were performed to assess competition (measured as half maximal inhibitory concentration (IC₅₀)) of the clones with the R12 scFv reference antibody for binding to ROR1-expressing cells, as described in Example 1. Percent (%) max ROR1 and % max competition, as compared to the R12 scFv reference antibody, were determined as described in Example 1.

[12] = biological target: T1, Human ROR1 (receptor tyrosine …); assay: competition with R12 scFv on ROR1-expressing cells; predicted plateau relative to R12 scFv = 100%
Protocol: as §2, §3

[13] = biological target: T1, Human ROR1 (receptor tyrosine …); assay: flow cytometry on ROR1-expressing K562 and CHOK1 cells, mean (n = 4)
[14] = biological target: T1, Human ROR1 (receptor tyrosine …); assay: flow cytometry competition, competitor R12 scFv on ROR1-expressing cells, mean (n = 4)
Protocol: as §1, §3

[15] = biological target: T1, Human ROR1 (receptor tyrosine …); assay: flow cytometry on ROR1-expressing cells; predicted plateau relative to R12 scFv = 100%; remark: listed apart in the source
Protocol: as §2, §3

[16] = biological target: T1, Human ROR1 (receptor tyrosine …); assay: flow cytometry competition, competitor 2 nM Myc-R12 scFv on ROR1/K562 cells, mean (n = 8)
Protocol: as §1

[17] = biological target: T1, Human ROR1 (receptor tyrosine …); assay: flow cytometry on ROR1-expressing K562 and CHOK1 cells, mean (n = 7)
[18] = biological target: T1, Human ROR1 (receptor tyrosine …); assay: flow cytometry competition, competitor R12 scFv on ROR1-expressing cells, mean (n = 5)
Protocol: as §1, §3

[19] = biological target: T1, Human ROR1 (receptor tyrosine …); assay: flow cytometry on ROR1-expressing K562 and CHOK1 cells, mean (n = 9)
[20] = biological target: T1, Human ROR1 (receptor tyrosine …); assay: flow cytometry competition, competitor R12 scFv on ROR1-expressing cells, mean (n = 3)
Protocol: as §1, §3

[21] = biological target: T1, Human ROR1 (receptor tyrosine …); assay: flow cytometry on ROR1-expressing K562 and CHOK1 cells, mean (n = 2); remark: listed apart in the source

B2: Clone V353 (VHH)
VHH: QVTLKESGGGLVKPGGSLRLSCAASGFTFSNAWMSWVRQAPGKGLEWVGRIKSKTDGGTTDYAAPVKGRFTISRDDSKNTLYLQMNSLKTEDTAVYYCARDFGRWGYYFDYWSQGTLVTVSS
notes: human VH-only single-domain antibody, no VL
IC50 [5]: 0.4 nM
% Max Competition [1]: 62%
EC50 [6]: 0.7 nM
% Max Binding [4]: 35%

B3: Clone V18 (VHH)
VHH: B2 VHH with T3Q, K5V, T80S, G106S, S113G
% Max Competition [1]: 54%
EC50 [6]: 0.2 nM
IC50 [7]: 3.4 nM
% Max Binding [4]: 37%

B4: R12 scFv reference antibody (scFv)
scFv: QEQLVESGGRLVTPGGSLTLSCKASGFDFSAYYMSWVRQAPGKGLEWIATIYPSSGKTYYATWVNGRFTISSDNAQNTVDLQMNSLTAADRATYFCARDSYADDGALFNIWGPGTLVTISSGGGGSGGGGSGGGGSELVLTQSPSVSAALGSPAKITCTLSSAHKTDTIDWYQQLQGEAPRYLMQVQSDGSYTKRPGVPDRFSGSSSGADRYLIIPSVQADDEADYYCGADYIGGYVFGGGTQLTVTG
notes: also called Myc-R12; rabbit anti-ROR1 antibody
EC50 [8]: 0.8 nM
EC50 [9]: 0.8 nM
IC50 [10]: 3.3 nM
IC50 [11]: 3.3 nM

B5: Clone 40 scFv (scFv)
scFv: QVTLKESGGGLVKPGGSLRLSCAASGFTFSNAWMSWVRQAPGKGLEWVGRIKSKTDGGTTDYAAPVKGRFTISRDDSKNTLYLQMNSLRTEDTAVYYCARDFGRWSYYFDYWSQGTLVTVSSQPVLTQPHSVSESPGKTVTISCTRSSGNIASNFVQWYQRRPDGATTNVIYEDTQRPSGVSGRFSGSIDRSSNSASLTISGLRAEDEADYYCQSYDGRNLMFGGGTKVTVL
notes: the two differ at the VH N-terminus; Printed without a linker
% Max Competition [12]: 70%
EC50 [13]: 3.2 nM
IC50 [14]: 22.8 nM
% Max Binding [15]: 81%

B6: Clone V70 (VHH)
VHH: QVQLLESGGGLVQPGRSLRLSCTASGFTFGDYAMSWVRQAPGKGLEWVSSISGSGRSTDHADYVKGRFTISRDNSKNTVYLQMNRLRAEDTAVYYCAKVSNYEYYFDYWAQGTLVTVSS
notes: as for B2
IC50 [16]: 38.2 nM
% Max Competition [1]: 92%
EC50 [17]: 3.1 nM
% Max Binding [4]: 92%

B9: Clone 20 scFv (scFv)
scFv: QVTLKESGGGLVKPGGSLRLSCAASGFTFSNAWMSWVRQAPGKGLEWVGRIKSKTDGGTTDYAAPVKGRFTISRDDSKNTLYLQMNSLKTEDTAVYYCARDFGRWSYYFDYWSQGTLVTVSSNIQMTQSPSSLSASVGDRVTITCRASQSINKWLAWYQQKPGKAPKLLIHDASTLESGVPSRFSGSGSGTEFTLTISSLHPDDSATYYCQQLKSRPLSFGEGTKLEIK
notes: 262 differs only at the VH N-terminus; Printed without a linker
% Max Competition [12]: 77%
IC50 [18]: 4.7 nM
EC50 [19]: 2.6 nM
% Max Binding [15]: 97%

B10: Clone 83 scFv (scFv)
scFv: QVQLVQSGAEVKKPGASVKVSCKASGYTFTSYYMHWVRQAPGQGLEWMGIINPSGGSTSYAQKFQGRVTMTRDTSTSTVYMELSSLRSEDTAVYYCARDSSYDAFDIWGQGTMVTVSSGGGGSGGGGSGGGGSAIQLTQSPSTLSASVGDRVTITCQASQDISNYLNWYQQKPGKAPKLLINDASYLETGVPSRFSGSGSGTDFTLTISSLQPEDIATYYCQQYESLPYTFGQGTKLEIK
% Max Competition [12]: 103%
IC50 [20]: 11.1 nM
EC50 [21]: 2.5 nM
% Max Binding [15]: 70%

B13: Clone 48 scFv (scFv)
scFv: QVTLKESGGGLVKPGGSLRLSCAASGFTFSNAWMSWVRQAPGKGLEWVGRIKSKTDGGTTDYAAPVKGRFTISRDDSKNTLYLQMNSLKTEDTAVYYCARDFGRWSYYFDYWSQGTLVTVSSGGGGSGGGGSGGGGSQSVLTQPSSVSGTPGQRVTISCSGSSSNIGSNYVYWYQQLPGTAPKLLIYRNNQRPSGVPDRFSGSKSGTSASLAISGLRSEDEADYYCAAWDDSLSGVVFGGGTKLTVL
% Max Competition [12]: 55%
EC50 [13]: 9.2 nM
IC50 [20]: 53.7 nM
% Max Binding [15]: 69%

Continued, values first:

% Max Competition [1]: 32%
EC50 [2]: 46.2 nM
IC50 [3]: 94.6 nM
% Max Binding [4]: 74%
B1: Clone V224 (VHH)
VHH: QVQLVESGGGLVKPGGSLRLSCAASGFTFINAWMSWVRQAPGKGLEWVGRIKSKTDGGTTDYAAPVKGRFTISRDDSKNTLYLQMNSLKTEDTAVYYCARTYSSSWYESLLFDYWGQGTLVTVSS
notes: as for B2

EC50 [6]: 97.7 nM
B7: Clone V86 (VHH)
VHH: QVQLLESGGGLVQPGGSLRLSCAASGFTFSSYAMSWVRQAPGKGLEWVSAISGSGGSTYYADSVKGRFTISRDNSKNTLYLQMNSLRAEDTAVYYCARVIFGVVNIPDYWGQGTLVTVSS
notes: as for B2

IC50 [5]: 19 nM
% Max Competition [1]: 36%
EC50 [6]: 35.5 nM
% Max Binding [4]: 61%
B8: Clone V95 (VHH)
VHH: QVQLVESGGGLVKPGGSLRLSCAASGFTFSNAWMSWVRQAPGKGLEWVGRIKSKTDGGTTDYAAPVKGRFTISRDDSKKTLYLQMNSLKTEDTAVYYCARGSGELRFLESYYFDYWGQGTLVTVSS
notes: as for B2

IC50 [5]: 28.8 nM
% Max Competition [1]: 37%
EC50 [2]: 28.7 nM
% Max Binding [4]: 78%
B11: Clone V316 (VHH)
VHH: EVQLVESGGGLVRPGGSLRLSCAASGLTFSRTWMSWVRQAPGKGLEWVASINDDGSEKYYVDSVKGRFTISRDNARNSLYLQMNRLRAEDTAVYYCARVDSERFLEWYYFDYWGQGTLVTVSS
notes: as for B2

EC50 [6]: 129 nM
B12: Clone V102 (VHH)
VHH: QVQLVESGGGLVQPGRSLRLSCTASGFTFGDYAMSWVRQAPGKGLEWVGFIRSKAYGGTTEYAASVKGRFTISRDDSQSIAYLQMDSLKTEDTAVYYCAKVGPSWDYYFDYWGQGTLVTVSS
notes: as for B2
